What is called EC50 is the concentration giving half of the maximal effect. Read a low EC50 as higher potency in that assay. By koff is commonly meant a measure of how fast the partners let go of each other. Higher therefore signals a short-lived complex.

Test [1] concerns the target T1, GST-fused truncated S2 protein S2 (D1139-E1151) (SARS-CoV-2, UniProt P0DTC2 1139-1151).
T1 chain: DPLQPELDSFKEE
Description: ELISA. For orientation: In an ELISA, binding on a coated surface is turned into a signal by an enzyme label.

Test [2] addresses T2, SARS-CoV-2 S2 (T1076-Q1208) antigen, trimeric S2 fusion-core-based antigen (SARS-CoV-2, UniProt P0DTC2 1076-1208).
T2 chain: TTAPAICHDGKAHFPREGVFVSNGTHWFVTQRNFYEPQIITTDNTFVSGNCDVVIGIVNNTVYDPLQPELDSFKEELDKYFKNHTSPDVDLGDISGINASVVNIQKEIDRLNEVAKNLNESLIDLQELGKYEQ
Nature of the test: BLI.

The next test has as its target S2 (D1139-D1153). Description: ELISA.
The target of another test is S2 (G1124-H1159). Description: ELISA.

Several values for one entry are separate records, joined by “and”; a condition that tells them apart may be missing. Equal entries are not always repeated. Bounds are passed on as bounds.

B1: nanobody H145 (VHH)
VHH: QVQLVESGGGLVQTGGSLRLSCEASGSAFSSYAVNWYRQAPGKQREPVAAIGSFNTVYSDSVKGRFTISRDNAKNTVYLQMNSLKPEDTAVYICNARRGATNTWGQGTQVTVSS
modifications: biotin (Biotinylation Kit), only in the BLI with truncated S2 proteins
On to B1, for which the results for the EC50 (in test [1]; with S2 (D1139-D1153); with S2 (G1124-H1159)) were more than 170 nM, 1.01 nM and 0.53 nM, respectively. Moreover, the koff in test [2] is 0.000149 s⁻¹ and 0.000129 s⁻¹ and 0.000123 s⁻¹.

B2: nanobody H17 (VHH)
VHH: EVQVVESGGGLVQTGGSLRLSCAASGSAFSSYAVNWYRQAPGKQREPVAAIGSFNTVYSDSVKGRFTISRDNAKNTVYLQMNSLKPEDTAVYVCNARRGATNYWGQGTQVTVSP
modifications: biotin (Biotinylation Kit), only in the BLI with truncated S2 proteins
Regarding B2, the koff in test [2] is 0.000525 s⁻¹ and 0.00023 s⁻¹. The figures for the EC50 with S2 (D1139-D1153) and with S2 (G1124-H1159) were 4.83 nM and 4.71 nM, respectively.
